PMC7863392 (EMBO Molecular Medicine, 2020)

Experiments:
[1] = target: T1, PSMA in lysates of 22Rv1^high cells and of lung SCC tumor samples (Homo sapiens, UniProt Q04609-1); assay: co-IP; immunoprecipitation of PSMA from 22Rv1^high cell lysate with chimeric antibody on protein G agarose beads; Western blot with murine J591; settings: one partner purified
T1 construct: prostate-specific membrane antigen (PSMA; FOLH1), human, endogenous; also called FOLH1; source: endogenous, lysates of 22Rv1^high cells and of slices of lung squamous cell carcinoma tumors
T1 sequence (Q04609 whole entry): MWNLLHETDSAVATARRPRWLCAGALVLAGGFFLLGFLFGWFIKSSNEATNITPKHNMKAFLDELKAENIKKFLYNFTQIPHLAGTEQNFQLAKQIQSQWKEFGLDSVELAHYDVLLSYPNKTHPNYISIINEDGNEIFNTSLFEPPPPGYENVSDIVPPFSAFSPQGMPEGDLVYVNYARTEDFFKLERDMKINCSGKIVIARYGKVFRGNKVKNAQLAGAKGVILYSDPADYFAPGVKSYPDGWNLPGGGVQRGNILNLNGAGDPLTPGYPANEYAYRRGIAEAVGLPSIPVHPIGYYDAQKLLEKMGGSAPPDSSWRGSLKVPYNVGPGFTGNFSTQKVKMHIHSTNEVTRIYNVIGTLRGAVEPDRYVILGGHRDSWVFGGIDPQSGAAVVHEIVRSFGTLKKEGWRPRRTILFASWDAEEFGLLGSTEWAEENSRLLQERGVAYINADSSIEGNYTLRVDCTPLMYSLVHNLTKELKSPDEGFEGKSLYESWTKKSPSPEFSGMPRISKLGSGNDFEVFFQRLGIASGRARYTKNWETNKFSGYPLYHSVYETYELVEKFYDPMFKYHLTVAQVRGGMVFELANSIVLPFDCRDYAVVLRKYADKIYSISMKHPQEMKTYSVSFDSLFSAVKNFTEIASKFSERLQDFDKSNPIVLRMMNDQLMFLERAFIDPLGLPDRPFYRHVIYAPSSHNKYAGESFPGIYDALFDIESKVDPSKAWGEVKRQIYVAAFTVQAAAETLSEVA

[2] = target: T2, recombinant, His-tagged PSMA produced by transfected CHO cells (Homo sapiens, UniProt Q04609); assay: SPR; chimeric antibodies immobilised on a Protein A coated sensor chip; His-tagged PSMA flowed; Biacore X, 25°C, 30 μl/min; settings: both partners purified
T2 construct: prostate-specific membrane antigen (PSMA; FOLH1); probably the soluble extracellular part (surmised); source: transfected CHO cells
T2 sequence (Q04609 56-750): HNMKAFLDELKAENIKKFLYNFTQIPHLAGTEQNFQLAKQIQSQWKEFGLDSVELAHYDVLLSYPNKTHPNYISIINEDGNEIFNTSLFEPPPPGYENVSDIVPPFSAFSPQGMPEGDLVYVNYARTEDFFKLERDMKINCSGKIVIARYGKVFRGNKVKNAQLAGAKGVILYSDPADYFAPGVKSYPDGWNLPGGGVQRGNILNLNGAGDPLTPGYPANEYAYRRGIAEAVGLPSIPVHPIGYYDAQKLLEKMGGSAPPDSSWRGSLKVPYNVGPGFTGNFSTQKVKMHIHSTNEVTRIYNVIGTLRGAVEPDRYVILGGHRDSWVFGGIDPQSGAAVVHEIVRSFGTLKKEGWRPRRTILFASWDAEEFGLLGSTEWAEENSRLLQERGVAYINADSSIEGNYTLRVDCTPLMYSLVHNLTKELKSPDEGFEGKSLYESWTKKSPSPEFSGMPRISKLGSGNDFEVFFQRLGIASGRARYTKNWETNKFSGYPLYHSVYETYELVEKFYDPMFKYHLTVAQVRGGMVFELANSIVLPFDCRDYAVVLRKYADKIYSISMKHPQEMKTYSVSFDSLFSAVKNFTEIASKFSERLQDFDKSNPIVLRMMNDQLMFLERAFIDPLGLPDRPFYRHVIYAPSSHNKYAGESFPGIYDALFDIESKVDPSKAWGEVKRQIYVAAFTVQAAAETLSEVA

binding result [1]: binds
binding result [2]: binds
B1: chimeric J591 antibody (murine J591 variable regions fused to human constant regions) (antibody, V domains shown)
VH: EVQLQQSGPELVKPGTSVRISCKTSGYTFTEYTIHWVKQSHGKSLEWIGNINPNNGGTTYNQKFEDKATLTVDKSSSTAYMELRSLTSEDSAVYYCAAGWNFDYWGQGTTLTVSS
VL: DIVMTQSHKFMSTSVGDRVSIICKASQDVGTAVDWYQQKPGQSPKLLIYWASTRHTGVPDRFTGSGSGTDFTLAITNVQSEDLADYFCQQYNSYPLTFGAGTKLEIK
